Molecular target: T1, Extracellular domain (ECD) of the human neuronal α9 nAChR (human, UniProt Q9UGM1 23-238)
T1 construct: also called ECD of human α9 nAChR; water-soluble extracellular domain of human α9 nAChR; source: expressed, enzymatically deglycosylated and purified as described [26]
Assay: radioligand binding
Settings: both partners purified

T1 sequence (Q9UGM1 23-238): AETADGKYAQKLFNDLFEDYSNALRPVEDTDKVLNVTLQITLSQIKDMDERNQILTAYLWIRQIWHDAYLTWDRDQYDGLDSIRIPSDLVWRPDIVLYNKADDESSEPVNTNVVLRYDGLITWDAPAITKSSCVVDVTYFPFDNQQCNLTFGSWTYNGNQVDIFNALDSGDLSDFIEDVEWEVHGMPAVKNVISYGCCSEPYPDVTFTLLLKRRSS

B1: PLA2 from porcine pancreas (enzyme)
chain: not shown
notes: also called PP PLA2; porcine pancreatic PLA2
  IC50: 5.5 µM
